Molecular target: CU228, putative PAS-HTH transcription factor from Candidatus Solibacter usitatus (Candidatus Solibacter usitatus)
Experiment: SEC-MALS

CU228, putative PAS-HTH transcription factor from Candidatus Solibacter usitatus (natural protein)
stoichiometry N: 2

Reference: publication PMC12514839 (Protein science : a publication of the Protein Society, 2025)
